Experimental data taken from patent US20200362047A1 (CRESCENDO BIOLOGICS, published 2020).
Numbering of substitutions follows the chain as printed.

B1: 1.1-6GS-1.1 (VHH)
chain: EVQLVESGGGLVQPGGSLRLSCAASGFTFSSHWMTWFRQAPGKGLEWVAHIKEDGSEKYYEDSVEGRFTVSRDNAKNSVYLQMNSLRAEDTAVYYCARGGDGYSDSHFGVDVWGQGTTVTVSSGGGGSGGGGSGGGGSGGGGSGGGGSGGGGSEVQLVESGGGLVQPGGSLRLSCAASGFTFSSHWMTWFRQAPGKGLEWVAHIKEDGSEKYYEDSVEGRFTVSRDNAKNSVYLQMNSLRAEDTAVYYCARGGDGYSDSHFGVDVWGQGTTVTVSS
notes: bivalent tandem VH, monospecific for CD137; also called bivalent Humabody VH 1.1; not shown: His tag
B2: 4.1-6GS-1.78 (bispecific antibody)
chain: EVQLVESGGGVVQPGRSLRLSCAASGFSFSGYGMHWVRQAPGKGLEWVAYISYDGSNKYYADSVKGRFTISRDNSKNTLYLQMNSLRAEDTAVYYCAKDPAWGLRLGESSSYDFDIWGQGTMVTVSSGGGGSGGGGSGGGGSGGGGSGGGGSGGGGSQVQLVESGGGLVQPGGSLRLSCAATGFTLSNYWMNWVRQAPGKGLEWVANINQDGSERYYVDSVKGRFTISRDNAKNSLYLQMSSLRAEDTAVYFCARGGEGYGVDHYGLDVSGQGTTVTVSS
notes: built from its printed name (4.1, 6GS linker, 1.78); not shown: His tag
B3: 1.1-6GS-1.1-6GS-1.1 (VHH)
chain: EVQLVESGGGLVQPGGSLRLSCAASGFTFSSHWMTWFRQAPGKGLEWVAHIKEDGSEKYYEDSVEGRFTVSRDNAKNSVYLQMNSLRAEDTAVYYCARGGDGYSDSHFGVDVWGQGTTVTVSSGGGGSGGGGSGGGGSGGGGSGGGGSGGGGSEVQLVESGGGLVQPGGSLRLSCAASGFTFSSHWMTWFRQAPGKGLEWVAHIKEDGSEKYYEDSVEGRFTVSRDNAKNSVYLQMNSLRAEDTAVYYCARGGDGYSDSHFGVDVWGQGTTVTVSSGGGGSGGGGSGGGGSGGGGSGGGGSGGGGSEVQLVESGGGLVQPGGSLRLSCAASGFTFSSHWMTWFRQAPGKGLEWVAHIKEDGSEKYYEDSVEGRFTVSRDNAKNSVYLQMNSLRAEDTAVYYCARGGDGYSDSHFGVDVWGQGTTVTVSS
notes: trivalent tandem VH, monospecific for CD137; also called trivalent Humabody VH 1.1; not shown: His tag
B4: Humabody VH 2.20 (VHH)
VHH: EVQLVESGGGLVKPGGSLRLSCAASGFTFSDYYMSWIRQAPGKGLEWVSHISSSGSTIDYADSVKGRFTISRDNAKNSLYLQMNSLRAEDTAVYYCAREDPRMPGTFDFDNWGQGTLVTVSS
notes: human single VH domain
B5: Humabody VH 2.26 (VHH)
VHH: B4 VHH with A23T, S30T, I37F, S56T, E89D, P101I, F107T
notes: human single VH domain
B6: 2.1-6GS-2.1 (VHH)
chain: EVQLVESGGGLVKPGGSLRVSCAASGFTFSDYYMSWFRQAPGKGLEWVSYISGSGDIIDYADSVKGRFTISRDNAKNSLYLQMNNLRAEDTAVYHCAREDSRLTGTTDFDNWGQGTLVTVSSGGGGSGGGGSGGGGSGGGGSGGGGSGGGGSEVQLVESGGGLVKPGGSLRVSCAASGFTFSDYYMSWFRQAPGKGLEWVSYISGSGDIIDYADSVKGRFTISRDNAKNSLYLQMNNLRAEDTAVYHCAREDSRLTGTTDFDNWGQGTLVTVSS
notes: bivalent tandem VH, monospecific for CD137; also called bivalent Humabody VH 2.1; not shown: His tag
B7: Humabody VH 1.114 (VHH)
VHH: EVQLVESGGGLVQPGGSLRLSCAASGFTLSNYWMNWVRQAPGKGLEWVANINQDESERYYVDSVKGRFTISRDNAKNSLYLQMNSLRAEDTAVYYCARGGEGYGVDHYGLDVSGQGTTVTVSS
notes: human single VH domain
B8: 2.1-6GS-2.1-6GS-2.1 (VHH)
chain: EVQLVESGGGLVKPGGSLRVSCAASGFTFSDYYMSWFRQAPGKGLEWVSYISGSGDIIDYADSVKGRFTISRDNAKNSLYLQMNNLRAEDTAVYHCAREDSRLTGTTDFDNWGQGTLVTVSSGGGGSGGGGSGGGGSGGGGSGGGGSGGGGSEVQLVESGGGLVKPGGSLRVSCAASGFTFSDYYMSWFRQAPGKGLEWVSYISGSGDIIDYADSVKGRFTISRDNAKNSLYLQMNNLRAEDTAVYHCAREDSRLTGTTDFDNWGQGTLVTVSSGGGGSGGGGSGGGGSGGGGSGGGGSGGGGSEVQLVESGGGLVKPGGSLRVSCAASGFTFSDYYMSWFRQAPGKGLEWVSYISGSGDIIDYADSVKGRFTISRDNAKNSLYLQMNNLRAEDTAVYHCAREDSRLTGTTDFDNWGQGTLVTVSS
notes: trivalent tandem VH, monospecific for CD137; also called trivalent Humabody VH 2.1; not shown: His tag
B9: 1.78-6GS-4.1 (bispecific antibody)
chain: QVQLVESGGGLVQPGGSLRLSCAATGFTLSNYWMNWVRQAPGKGLEWVANINQDGSERYYVDSVKGRFTISRDNAKNSLYLQMSSLRAEDTAVYFCARGGEGYGVDHYGLDVSGQGTTVTVSSGGGGSGGGGSGGGGSGGGGSGGGGSGGGGSEVQLVESGGGVVQPGRSLRLSCAASGFSFSGYGMHWVRQAPGKGLEWVAYISYDGSNKYYADSVKGRFTISRDNSKNTLYLQMNSLRAEDTAVYYCAKDPAWGLRLGESSSYDFDIWGQGTMVTVSS
notes: built from its printed name (1.78, 6GS linker, 4.1); not shown: His tag
B10: Humabody VH 1.71 (VHH)
VHH: EVQLVESGGGLVQPGGSLRLSCAASGFTFGNYWMIWVRQAPGKELEWLANINQNGSERYYVDSVQGRFTISRDNAKNSLYLQMNSLRAEDTAVYYCARGGADYSNSHYGMDVSGQGTTVTVSS
notes: human single VH domain
B11: Humabody VH 1.39 (VHH)
VHH: EVQLVESGGGLVQPGGSLRLSCAASGFTFSNYWMNWVRQAPGKELEWVANINQDESEKYYVDSVKGRFTVSRDNAKNSLFLQMNSLRADDTAVYYCARGGFGYGDSHFGMDVWGQGTTVTVSS
notes: human single VH domain
B12: Humabody VH 1.63 (VHH)
VHH: EVQLVESGGGLVQPGGSLSLSCAASGFTFRSFWMNWVRQAPGKEAEWVANINQDGSEKYYVDSVKGRFTISRDNAKNSLFLQMNSLRAEDTAVYYCARGGPDYGDLHYGMDVWGQGTTVTVSS
notes: human single VH domain
B13: Humabody VH 1.16 (VHH)
VHH: EVQLVESGGGLVQPGGSLRLSCVASGFTFSNYWMMWFRQAPGKGLEWVANINQDGSEKYFVDSVEGRFTISRDNAKNSLYLQMNSLRAEDTAVYYCARGGDGYSSSHYGTDVWGQGTTVTVSS
notes: human single VH domain
B14: Humabody VH 1.75 (VHH)
VHH: B7 VHH with E1Q, L29F, N31D, W33Y, N35S, V37I, E55G, N84S, Y95F
notes: human single VH domain
B15: Humabody VH 1.81 (VHH)
VHH: B7 VHH with E1Q, S25T, E55G, K65E, N77S, N84S, S85N, Y95F
notes: human single VH domain

These binders were tested against T1, human CD137 expressed on the surface of CHO cells (human, UniProt Q07011 24-255) (assay: FMAT ligand inhibition, CD137 Ligand on CHO human CD137 cells).
T1 construct: Also used for the Jurkat reporter cells that express human CD137 (functional rows); also called CHO human CD137 cells; CHO huCD137
Procedure: In parallel to the binding assay, periplasmic extracts were tested for their ability to inhibit the interaction of human CD137 ligand protein with CHO human CD137 cells in an FMAT format. Total binding controls containing diluted periplasmic extract sample buffer and non-specific binding controls containing excess non-Fc tagged competitor were set up on each plate for data normalisation. Fluorescence signal was measured using the TTP Mirrorball and the FL2 median mean fluorescence intensity of gated used for the data normalisation. The data was expressed as a % of the total binding control (% control) after subtraction of the background signal determined from the non-specific binding control wells.
The ability of purified Humabody VH to inhibit the binding of CD137 Ligand to CHO human CD137 cells was measured in the FMAT ligand inhibition assay essentially as described in Example 6. VH inhibited the binding of human CD137 Ligand to human CD137.

T1 sequence (Q07011 24-255 limits assumed): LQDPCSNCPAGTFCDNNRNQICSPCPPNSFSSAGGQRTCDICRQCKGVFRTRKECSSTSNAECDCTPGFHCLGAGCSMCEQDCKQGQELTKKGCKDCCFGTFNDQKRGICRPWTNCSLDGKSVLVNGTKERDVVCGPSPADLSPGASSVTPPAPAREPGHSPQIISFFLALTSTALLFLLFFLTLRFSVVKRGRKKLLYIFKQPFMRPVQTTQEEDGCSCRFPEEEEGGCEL

IC50 [nM] | Binder
0.28 | B1
3.7 | B2
0.2 | B3
1.7 | B4
8.5 | B5
0.43 | B6
0.27 | B7
0.42 | B8
2.8 | B9

These binders were tested against T1, human CD137 expressed on the surface of … (assay: FMAT, CHO human CD137 cells).
Procedure: Binding of His-tagged molecules to CHO human CD137, CHO parent, CHO human PSMA, DU145 PSMA and DU145 parent cells was assessed using Fluorescence Microvolume Assay Technology (FMAT). All reagents were prepared in FMAT assay buffer (pH 7.4) containing PBS, 0.1% Bovine Serum Albumin, 0.05% Sodium Azide. Serially diluted samples were transferred into 384 well black clear-bottomed assay plates (Costar cat. no. 3655) and incubated for a minimum of 2 hours at room temperature with 1.5 nM Anti-His (Millipore cat. no. 05-949), […] Goat Anti-Mouse Alexa Fluor-488 (Jackson ImmunoResearch cat. no. 115-545-071) and 2000 cells/well pre-stained with DRAQ5 (Thermo Scientific cat. no. 62251). Fluorescence emission was then measured on the TTP Mirrorball plate reader in the FL2 (502 nm-537 nm) and FL5 (677-800 nm) channels following excitation at 488 nm and 640 nm. Data was gated on FL5 perimeter and peak intensity and the FL2 median mean fluorescence intensity of the gated data used for determination of VH binding. Monovalent CD137 specific Humabody® VH, bispecific and trispecific molecules with a CD137 binding arm bound to CHO CD137 expressing cells. Monovalent PSMA specific Humabody® VH, bispecific and trispecific molecules with a PSMA binding arm bound to PSMA expressing cells.

EC50 [nM] | Binder
0.18 | B5

Each binder was assayed against T2, CD137 on pre-stimulated human CD8+ T cells (human, UniProt Q07011 24-255) (assay: flow cytometry, PMA/ionomycin-stimulated human CD8+ T cells, mean of 2-3 donors).
T2 construct: also called pre-stimulated CD8+ cells; primary T cells
Procedure: Binding to primary T cells was measured using flow cytometry. Peripheral blood mononuclear cells (PBMCs) were isolated from human blood by density gradient centrifugation then CD8+ T cells purified using a negative selection isolation kit according to the manufacturer's protocol (Miltenyi Biotech cat no 130-042-401). T-cells were stimulated PMA/Ionomycin for 48-72 hours in RPMI media supplemented with 10% FBS, 2 mM Glutamine, 1× Pen/Strep. Cells were transferred into 96 well plates, blocked for 10 mins with staining buffer (PBS/1% BSA/0.05% Sodium Azide) then incubated with serially diluted VH in staining buffer (PBS/1% BSA) for 30 mins-1 hour at 4° C. Cells were washed by centrifugation then VH binding detected using Anti His antibody (Millipore 05-949) and Goat Anti Mouse Alexa Fluor-488 (Jackson ImmunoResearch cat no. 115-545-071). A Live Dead near IR stain (Molecular Probes cat no. L10119) was used for discrimination of live cells. After further washing cells were fixed and fluorescence measured by flow cytometry.

T2 sequence (Q07011 24-255 limits assumed): as above

EC50 [nM] | Binder
2.8 | B5

The binders below were run against T3, human CD137-human Fc chimeric protein (Acro Biosystems cat no. 41B-H5258) (human, UniProt Q07011 24-186) (assay: BLI (Octet RED384), CD137-Fc on Protein G sensors, 1:1 model).
T3 construct: Bought protein; The Octet Protein G and Biacore experiments name no catalogue number; also called human CD137Fc recombinant protein; human CD137-Fc recombinant protein; not shown: human IgG1 Fc tag
Procedure: Binding kinetics of purified VH, bivalent VH and trivalent VH molecules were measured on a ForteBio Octet RED 384 instrument. CD137-Fc tagged protein was diluted to 3 μg/ml in kinetics buffer (0.1% BSA, 0.02% Tween, 1×PBS) and coupled to Protein G biosensors (ForteBio cat no. 18-5082) via the Fc tag. VH were serially diluted (typically 1:2 dilution series starting with 50 nM, VH at the highest concentration) and binding to the CD137-Fc-coupled Protein G biosensors measured. Binding kinetics were determined from the (blank subtracted) sensor gram trace using 1:1 binding models and ForteBio Octet Data Analysis 9.0 software. Example kinetic and binding affinity data obtained is shown Table 10 (monovalent VH) and FIG. 1 (bivalent and trivalent molecules).

Kd [nM] | koff [s⁻¹] | kon [M⁻¹ s⁻¹] | Binder
0.091 | 2.84e-05 | 313000 | B10
0.9 | 0.000505 | 559000 | B11
2.8 | 0.000596 | 217000 | B12
2.4 | 0.00145 | 610000 | B13
1.2 | 0.002 | 1.64e+06 | B4
4.7 | 0.00842 | 1.8e+06 | B5
0.75 | 0.000353 | 474000 | B14
0.16 | 0.000171 | 1.06e+06 | B15
